The source of these data is the supplement of paper PMC10567573.

B1: FAM50A (parent)
chain: HIFPASRWEPYDPEKKWDKYTIR
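Also: lentivirally expressed fusions sorted by FACS into six bins by GFP to DsRed ratio, PSI derived from sequencing read proportions per bin multiplied by bin number.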

In the data set the parent is B1. In words: protein stability index of a GFP-peptide fusion (GPS, HEK-293T) (PSI 1-6); higher = more stable. As to conditions: c terminus: native.
Regarding HIFPSSRWEPYDPEKKWDKYTIR, the protein stability index came out at 3.2.
In the case of HIFPVSRWEPYDPEKKWDKYTIR, the protein stability index amounted to 1.77.
As for HIFPFSRWEPYDPEKKWDKYTIR, the protein stability index was determined as 2.24.
As for HIFPYSRWEPYDPEKKWDKYTIR, the figure is 1.5.
The figure for HIFPKSRWEPYDPEKKWDKYTIR is 2.31.
For HIFPDSRWEPYDPEKKWDKYTIR, the protein stability index was determined as 2.04.
In the case of HIFPRSRWEPYDPEKKWDKYTIR, the protein stability index came out at 1.9.
For HIFPPSRWEPYDPEKKWDKYTIR, the protein stability index was found to be 3.42.
The figure for HIFPHSRWEPYDPEKKWDKYTIR is 1.8.
With HIFPESRWEPYDPEKKWDKYTIR, the protein stability index came to 1.96.
Take HIFPASRSEPYDPEKKWDKYTIR: the protein stability index was determined as 3.62.
Regarding HIFPASRTEPYDPEKKWDKYTIR, the protein stability index came out at 4.03.
In the case of HIFPASRCEPYDPEKKWDKYTIR, the protein stability index came out at 3.11.
As to HIFPASRQEPYDPEKKWDKYTIR, the protein stability index was determined as 4.11.
As for HIFPASRKEPYDPEKKWDKYTIR, the figure is 2.96; as for HIFPASRDEPYDPEKKWDKYTIR, 3.54; as for HIFPASRAEPYDPEKKWDKYTIR, 3.29.
As for HIFPASRLEPYDPEKKWDKYTIR, the protein stability index was 3.38.
In the case of HIFPASREEPYDPEKKWDKYTIR, the protein stability index is 3.6.
Regarding HIFPASRGEPYDPEKKWDKYTIR, the protein stability index was determined as 3.72.
With HIFPASRNEPYDPEKKWDKYTIR, the protein stability index was 3.88.
On to HIFPASRVEPYDPEKKWDKYTIR, for which the protein stability index is 3.62.
As for HIFPASRREPYDPEKKWDKYTIR, the figure is 3.54; as for HIFPASRIEPYDPEKKWDKYTIR, 3.38; as for HIFPASRHEPYDPEKKWDKYTIR, 3.46.
Take HIFPASRPEPYDPEKKWDKYTIR: the protein stability index is 3.92.
On to HIFPASRFEPYDPEKKWDKYTIR, for which the protein stability index was 2.17.
As for HIFPASRMEPYDPEKKWDKYTIR, the figure is 3.42.
As for HIFPASRYEPYDPEKKWDKYTIR, the figure is 2.5; as for HIFPASRWEPYDWEKKWDKYTIR, 1.25; as for HIFPASRWEPYDVEKKWDKYTIR, 2.72.
The figure for HIFPASRWEPYDMEKKWDKYTIR is 2.53.
For the variant HIFPASRWEPYDEEKKWDKYTIR, the protein stability index was found to be 1.86.
Regarding HIFPASRWEPYDTEKKWDKYTIR, the protein stability index is 2.3.
On to HIFPASRWEPYDDEKKWDKYTIR, for which the protein stability index came out at 1.75.
HIFPASRWEPYDAEKKWDKYTIR: the protein stability index was 2.44.
For the variant HIFPASRWEPYDNEKKWDKYTIR, the protein stability index amounted to 2.05.
The figure for HIFPASRWEPYDREKKWDKYTIR is 2; for HIFPASRWEPYDSEKKWDKYTIR it is 2.1; for HIFPASRWEPYDHEKKWDKYTIR it is 2.19.
As for HIFPASRWEPYDLEKKWDKYTIR, the figure is 1.58; as for HIFPASRWEPYDQEKKWDKYTIR, 1.74.
As for HIFPASRWEPYDCEKKWDKYTIR, the figure is 1.48; as for HIFPASRWEPYDKEKKWDKYTIR, 2.25.
For HIFPASRWEPYDGEKKWDKYTIR, the protein stability index was 2.03.
The figure for HIFPASRWEPYDFEKKWDKYTIR is 2.8; for HIFPASRWEPYDIEKKWDKYTIR it is 3.04.
The figure for HIEPASRWEPYDPEKKWDKYTIR is 2.75.
As for HIDPASRWEPYDPEKKWDKYTIR, the figure is 3.92; as for HIPPASRWEPYDPEKKWDKYTIR, 2.62; as for HINPASRWEPYDPEKKWDKYTIR, 3.25.
Regarding HISPASRWEPYDPEKKWDKYTIR, the protein stability index stood at 2.79.
The figure for HIHPASRWEPYDPEKKWDKYTIR is 1.96; for HIIPASRWEPYDPEKKWDKYTIR it is 2.57; for HIKPASRWEPYDPEKKWDKYTIR it is 2.47.
The figure for HIMPASRWEPYDPEKKWDKYTIR is 1.74; for HIQPASRWEPYDPEKKWDKYTIR it is 3.31; for HIVPASRWEPYDPEKKWDKYTIR it is 2.31.
In the case of HIGPASRWEPYDPEKKWDKYTIR, the protein stability index worked out at 4.42.
Take HIYPASRWEPYDPEKKWDKYTIR: the protein stability index was 2.1.
The figure for HICPASRWEPYDPEKKWDKYTIR is 2.54; for HITPASRWEPYDPEKKWDKYTIR it is 3; for HIAPASRWEPYDPEKKWDKYTIR it is 3.12.
As for HILPASRWEPYDPEKKWDKYTIR, the figure is 2.63.
The figure for HIFPASRWEFYDPEKKWDKYTIR is 2.04; for HIFPASRWEVYDPEKKWDKYTIR it is 1.94; for HIFPASRWELYDPEKKWDKYTIR it is 1.8.
For the variant HIFPASRWESYDPEKKWDKYTIR, the protein stability index amounted to 2.91.
As for HIFPASRWERYDPEKKWDKYTIR, the figure is 2.7; as for HIFPASRWEIYDPEKKWDKYTIR, 1.24.
As for HIFPASRWEYYDPEKKWDKYTIR, the figure is 2.89.
As for HIFPASRWEKYDPEKKWDKYTIR, the figure is 2.24; as for HIFPASRWEWYDPEKKWDKYTIR, 1.58.
For HIFPASRWEDYDPEKKWDKYTIR, the protein stability index was 2.23.
The figure for HIFPASRWEEYDPEKKWDKYTIR is 2.32; for HIFPASRWEHYDPEKKWDKYTIR it is 2.88; for HIFPASRWEGYDPEKKWDKYTIR it is 2.45.
The figure for HIFPASRWEMYDPEKKWDKYTIR is 1.82; for HIFPASRWECYDPEKKWDKYTIR it is 3.
As for HIFPASRWEAYDPEKKWDKYTIR, the figure is 1.71; as for HIFPASRWETYDPEKKWDKYTIR, 2.3; as for HIFPASRWENYDPEKKWDKYTIR, 2.02.
For the variant HIFPASRWEQYDPEKKWDKYTIR, the protein stability index came out at 2.12.
The figure for HIFPAGRWEPYDPEKKWDKYTIR is 2.98.
The figure for HIFPAPRWEPYDPEKKWDKYTIR is 4.97.
As for HIFPAMRWEPYDPEKKWDKYTIR, the figure is 2.48; as for HIFPAIRWEPYDPEKKWDKYTIR, 2.63.
With HIFPANRWEPYDPEKKWDKYTIR, the protein stability index was found to be 2.86.
Consider HIFPACRWEPYDPEKKWDKYTIR, for which the protein stability index stood at 1.72.
Turning to HIFPAWRWEPYDPEKKWDKYTIR, the protein stability index is 2.
As for HIFPAVRWEPYDPEKKWDKYTIR, the figure is 1.95; as for HIFPALRWEPYDPEKKWDKYTIR, 1.84; as for HIFPADRWEPYDPEKKWDKYTIR, 1.87.
The figure for HIFPAERWEPYDPEKKWDKYTIR is 3.04; for HIFPAARWEPYDPEKKWDKYTIR it is 2.66; for HIFPAFRWEPYDPEKKWDKYTIR it is 2.92.
As for HIFPAQRWEPYDPEKKWDKYTIR, the figure is 3.79.
